Reference: paper PMC5887453 (Nucleic Acids Research, 2018)

Key:
Assay in all cases: native gel or EMSA
PhoEF-2 M168S = molecular target: T1, PhoEF-2 M168S (Pyrococcus horikoshii, UniProt O59521 1-732, M168S)
T1 sequence (looked up): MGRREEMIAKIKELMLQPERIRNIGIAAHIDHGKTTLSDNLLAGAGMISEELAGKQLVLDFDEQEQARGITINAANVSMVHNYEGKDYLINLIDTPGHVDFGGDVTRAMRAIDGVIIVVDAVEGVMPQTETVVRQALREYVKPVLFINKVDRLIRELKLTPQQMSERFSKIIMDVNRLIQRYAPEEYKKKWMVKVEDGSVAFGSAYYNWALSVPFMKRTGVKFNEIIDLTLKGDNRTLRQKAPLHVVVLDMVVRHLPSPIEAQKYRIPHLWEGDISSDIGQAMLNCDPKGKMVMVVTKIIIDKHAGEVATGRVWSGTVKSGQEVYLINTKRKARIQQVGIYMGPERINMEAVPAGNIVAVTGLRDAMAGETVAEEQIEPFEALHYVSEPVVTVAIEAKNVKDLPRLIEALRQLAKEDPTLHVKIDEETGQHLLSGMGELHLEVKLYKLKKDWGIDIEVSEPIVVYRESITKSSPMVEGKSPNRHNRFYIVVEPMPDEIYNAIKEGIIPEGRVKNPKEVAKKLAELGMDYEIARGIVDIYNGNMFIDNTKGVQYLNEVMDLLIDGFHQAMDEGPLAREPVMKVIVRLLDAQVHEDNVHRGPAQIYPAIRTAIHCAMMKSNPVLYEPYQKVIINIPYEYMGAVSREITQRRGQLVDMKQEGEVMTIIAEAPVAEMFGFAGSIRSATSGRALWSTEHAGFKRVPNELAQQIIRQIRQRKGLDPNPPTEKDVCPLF

PhoEF-2 V198S = molecular target: T2, PhoEF-2 V198S (Pyrococcus horikoshii, UniProt O59521 1-732, V198S)
T2 sequence (looked up): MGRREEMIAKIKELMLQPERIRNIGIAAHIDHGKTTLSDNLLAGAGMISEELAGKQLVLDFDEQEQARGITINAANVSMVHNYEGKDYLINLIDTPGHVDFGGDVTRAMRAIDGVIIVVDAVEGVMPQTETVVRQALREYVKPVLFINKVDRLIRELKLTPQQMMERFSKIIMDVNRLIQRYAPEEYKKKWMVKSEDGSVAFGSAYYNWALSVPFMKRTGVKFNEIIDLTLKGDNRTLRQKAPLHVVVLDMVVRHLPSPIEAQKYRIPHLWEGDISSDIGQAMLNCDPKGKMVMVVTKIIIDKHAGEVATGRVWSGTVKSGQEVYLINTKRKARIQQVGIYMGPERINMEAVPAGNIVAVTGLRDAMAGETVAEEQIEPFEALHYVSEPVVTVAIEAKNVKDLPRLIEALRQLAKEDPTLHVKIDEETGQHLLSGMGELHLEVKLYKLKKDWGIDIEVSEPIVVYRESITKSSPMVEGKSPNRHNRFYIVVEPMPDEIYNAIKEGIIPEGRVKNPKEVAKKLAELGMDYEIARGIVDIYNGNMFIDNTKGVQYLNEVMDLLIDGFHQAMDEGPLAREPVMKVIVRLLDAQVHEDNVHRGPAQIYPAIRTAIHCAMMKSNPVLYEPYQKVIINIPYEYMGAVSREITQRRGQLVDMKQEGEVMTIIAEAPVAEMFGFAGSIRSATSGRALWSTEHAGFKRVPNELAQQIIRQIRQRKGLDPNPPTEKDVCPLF

PhoEF-2 F171S = molecular target: T3, PhoEF-2 F171S (Pyrococcus horikoshii, UniProt O59521 1-732, F171S)
T3 sequence (looked up): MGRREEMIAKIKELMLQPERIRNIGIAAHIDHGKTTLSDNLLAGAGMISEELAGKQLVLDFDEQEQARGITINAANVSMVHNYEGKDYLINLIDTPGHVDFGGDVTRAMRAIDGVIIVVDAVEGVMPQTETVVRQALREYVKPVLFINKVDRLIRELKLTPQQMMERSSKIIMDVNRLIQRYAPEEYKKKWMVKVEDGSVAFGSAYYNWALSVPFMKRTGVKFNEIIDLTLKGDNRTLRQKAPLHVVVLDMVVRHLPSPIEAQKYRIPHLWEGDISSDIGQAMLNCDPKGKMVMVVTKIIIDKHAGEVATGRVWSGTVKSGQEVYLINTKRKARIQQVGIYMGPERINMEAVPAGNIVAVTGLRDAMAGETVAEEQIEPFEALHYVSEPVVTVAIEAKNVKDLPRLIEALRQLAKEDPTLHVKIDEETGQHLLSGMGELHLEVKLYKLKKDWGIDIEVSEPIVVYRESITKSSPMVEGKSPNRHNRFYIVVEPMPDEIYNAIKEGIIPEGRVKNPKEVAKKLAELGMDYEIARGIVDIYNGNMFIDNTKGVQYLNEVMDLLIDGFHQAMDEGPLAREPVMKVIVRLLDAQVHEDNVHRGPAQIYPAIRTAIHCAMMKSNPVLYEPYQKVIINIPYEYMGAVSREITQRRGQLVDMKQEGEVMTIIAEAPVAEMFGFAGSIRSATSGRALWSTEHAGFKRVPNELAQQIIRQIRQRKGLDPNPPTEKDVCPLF

Measured: binding result

B1: Pyrococcus horikoshii ribosomal stalk protein P1 (natural protein, UniProt O57705 1-108, looked up)
chain: MEYVYAALLLHSVGKEINEENLKAVLQAAGVEPEEARIKALVAALEGVNIDEVIEKAAMPVAVAAAPAAAPAEAGGEEKKEEEKKEEEEKEEEVSEEEALAGLSALFG
modifications: in the SPR only: biotin on amino groups via a PEG linker (EZ-Link NHS-PEG4-Biotin)
binds: all assays above
